Source: publication PMC10934791 (Molecules, 2024)

Assays:
[1] = molecular target: recombinant Lymnaea stagnalis acetylcholine-binding protein (AChBP) produced in LEXSY (Lymnaea stagnalis); assay: radioligand binding
[2] = molecular target: T1, recombinant L. stagnalis AChBP expressed in the insect Sf9 cells (Lymnaea stagnalis, UniProt P58154 20-229); assay: radioligand binding; conditions: both partners purified
T1 construct: also called insect cell-produced AChBP; standard specimen of insect cell-produced AChBP
T1 sequence (P58154 20-229): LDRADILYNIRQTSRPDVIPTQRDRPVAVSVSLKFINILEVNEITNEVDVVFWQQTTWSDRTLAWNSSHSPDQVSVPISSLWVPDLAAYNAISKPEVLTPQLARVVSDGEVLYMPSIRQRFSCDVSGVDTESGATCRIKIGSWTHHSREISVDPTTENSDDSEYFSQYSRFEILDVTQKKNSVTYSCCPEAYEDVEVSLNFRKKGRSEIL

recombinant Lymnaea stagnalis acetylcholine-binding protein (AChBP) produced in LEXSY (Lymnaea stagnalis), sequence (P58154 20-229 limits assumed): as the sequence (P58154 20-229) above

| Molecule | Kd [1] | Kd [2] |
| --- | --- | --- |
| radioiodinated α-bungarotoxin (from UniProt P60615 22-95) (ligand) | 0.05 nM | – |
| radioiodinated α-bungarotoxin (ligand) IVCHTTATSPISAVTCPPGENLCYRKMWCDAFCSSRGKVVELGCAATCPSKKPYEEVTCCSTDKCNPHPKQRPG | – | 0.062 ± 0.013 nM |
